{"source": "paper PMC5647421", "about": "“Hetero-oligomer of dynamin-related proteins participates in the fission of highly divergent mitochondria from Entamoeba histolytica” (Scientific Reports, 2017)", "binders": {"B1": {"name": "EhDrpB (endogenous) (natural protein, UniProt C4M3R5 1-663, looked up)", "chain": "MQRLIPVINSLQDVFTAAGLPNTLPLPQIVVVGSQSSGKSSVLEHVVGKDFLPRGSGIVTRRPLIVQCVRSNVAEDYGQFEHTGDRKFTDFGEIRNEITRETERTCPGRNVSSVPIRLRIYSSSVVDLTLVDLPGLVKVNINGQTAEMVKNLRDMVYEYASPSNALILAVTAGNIDIANSDALQVAKDVDPDGERTIGVLTKLDLEDKGTNSMDVLMGRVYPLKLGYIGVVNRSQQDINNGVDVKTSLRHEKEFFENHPVYCSIAERMGTEYMVNRLNVLLLQHIQKCLPGLKQQINQCYEKARSRYEDIKPDDENLLSLSLQQIMKFSGSFAAALNGTDTNIHTHEISGGAKIFSVFENNFRPTIDSQDILSGIKDVDILTAIKNASGTRPCLYVPQSAFENLISKQVRNFEGTCHNCVDNVYREMKVIVGKIAKDNIEKYDRFREALIQASTEVMNDYMTQTHKMVQDLIDIEADYINTSHPDFDTTKVLKEADEAMKTPQDGIDTIVTIDPNNTTNAQQYEAKKPVKSSFFAGQINKNQAKPQQQHVPKESITTSIRVDHTNQREMREINLIRNLCKDYLLIVRKSIKDLVPKAVIHFLVFKTRDSLQKELIKKLYNEALLQDLLAENPAIVNERKVVKQNLEALKKALDIINQVRDQCF", "notes": "Entamoeba histolytica dynamin-related protein B (EhDrpB), XP_651634; also called endogenous EhDrpB; native EhDrpB; source: endogenous, E. histolytica trophozoite whole cell lysate"}}, "biological_target": "T1, EhDrpA (endogenous) (Entamoeba histolytica (endogenous in …, UniProt C4LX84 1-682))", "T1 construct": "Entamoeba histolytica dynamin-related protein A (EhDrpA, earlier named EhDlp1), XP_649650; also called endogenous EhDrpA; native EhDrpA; source: endogenous, E. histolytica trophozoite whole cell lysate", "T1 sequence (looked up)": "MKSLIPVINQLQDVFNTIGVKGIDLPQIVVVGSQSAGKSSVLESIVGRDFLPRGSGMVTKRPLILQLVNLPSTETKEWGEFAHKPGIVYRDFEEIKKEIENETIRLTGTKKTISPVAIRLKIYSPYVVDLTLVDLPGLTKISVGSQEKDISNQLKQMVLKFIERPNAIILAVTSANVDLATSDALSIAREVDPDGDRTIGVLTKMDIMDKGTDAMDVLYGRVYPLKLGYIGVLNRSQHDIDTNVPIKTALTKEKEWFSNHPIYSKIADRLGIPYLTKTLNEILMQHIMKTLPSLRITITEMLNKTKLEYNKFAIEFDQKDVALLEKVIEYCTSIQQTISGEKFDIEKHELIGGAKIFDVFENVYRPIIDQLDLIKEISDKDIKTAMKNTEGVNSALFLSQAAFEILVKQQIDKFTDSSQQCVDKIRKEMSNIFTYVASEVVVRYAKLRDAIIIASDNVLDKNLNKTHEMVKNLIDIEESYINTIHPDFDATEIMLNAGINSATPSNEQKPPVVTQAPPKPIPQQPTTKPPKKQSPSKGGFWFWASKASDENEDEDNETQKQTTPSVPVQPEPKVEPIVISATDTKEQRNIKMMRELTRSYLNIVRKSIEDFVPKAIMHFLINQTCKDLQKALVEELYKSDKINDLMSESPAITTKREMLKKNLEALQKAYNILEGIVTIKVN", "assay": "co-IP; trophozoites of E. histolytica HM-1:IMSS cl6 wild type; immunoprecipitation by anti-DrpA or anti-DrpB antibodies; quantitative immunoblot with recombinant His6-EhDRP-HA proteins as standards", "details": "partners not purified", "note": "Where “and” joins values, the source holds several entries; their conditions need not be identical. Equal values may be shown once.", "data": [{"binder": "B1", "values": [{"measurement": "stoichiometry N", "result": "2 EhDrpB per EhDrpA and 3 EhDrpB per EhDrpA"}]}]}
